In patent US20200045945A1:
Values joined by “and” are separate entries in the source; they are usually repeats but may differ in a detail not shown here. Identical values can stand only once.

What was measured:
[1] = target: wild type (full-length, unmodified) porcine CD163 (pig) (UniProt Q2VL90); assay: cell-based or functional assay
[2] = target: ΔSRCR5 CD163 (porcine CD163 with the SRCR5 domain deleted) (pig) (UniProt Q2VL90); assay: cell-based or functional assay
[3] = target: CD163 on macrophages of heterozygous pigs 627 and 634 (both the full-length and the ΔSRCR5 protein); assay: cell-based or functional assay
[4] = target: CD163 on macrophages of all six pigs 628, 633, 627, 634, 629, 630 (wild type, heterozygous and ΔSRCR5); assay: cell-based or functional assay
[5] = target: CD163 on macrophages of all six pigs 628, 633, 627, 634, 629, 630 (wild type, heterozygous and ΔSRCR5); assay: flow cytometry on PAMs, isotype control staining of the six pigs
[6] = target: CD163 on macrophages of all six pigs 628, 633, 627, 634, 629, 630 (wild type, heterozygous and ΔSRCR5); assay: flow cytometry on PMMs, isotype control staining of the six pigs
[7] = target: CD163 on macrophages of heterozygous pigs 627 and 634 (both the full-length and the ΔSRCR5 protein); assay: flow cytometry on PMMs of pig 634 (heterozygous)
[8] = target: CD163 on macrophages of heterozygous pigs 627 and 634 (both the full-length and the ΔSRCR5 protein); assay: flow cytometry on PMMs of pig 627 (heterozygous)
[9] = target: CD163 on macrophages of heterozygous pigs 627 and 634 (both the full-length and the ΔSRCR5 protein); assay: flow cytometry on PAMs of pig 627 (heterozygous)
[10] = target: ΔSRCR5 CD163 (porcine CD163 with the SRCR5 domain deleted) (pig) (UniProt Q2VL90); assay: flow cytometry on PMMs of pig 630 (ΔSRCR5)
[11] = target: wild type (full-length, unmodified) porcine CD163 (pig) (UniProt Q2VL90); assay: flow cytometry on PMMs of pig 628 (wild type)
[12] = target: ΔSRCR5 CD163 (porcine CD163 with the SRCR5 domain deleted) (pig) (UniProt Q2VL90); assay: flow cytometry on PAMs of pig 630 (ΔSRCR5)
[13] = target: ΔSRCR5 CD163 (porcine CD163 with the SRCR5 domain deleted) (pig) (UniProt Q2VL90); assay: flow cytometry on PAMs of pig 629 (ΔSRCR5)
[14] = target: wild type (full-length, unmodified) porcine CD163 (pig) (UniProt Q2VL90); assay: flow cytometry on PAMs of pig 628 (wild type)
[15] = target: CD163 on macrophages of heterozygous pigs 627 and 634 (both the full-length and the ΔSRCR5 protein); assay: flow cytometry on PAMs of pig 634 (heterozygous)
[16] = target: wild type (full-length, unmodified) porcine CD163 (pig) (UniProt Q2VL90); assay: flow cytometry on PAMs of pig 633 (wild type)
[17] = target: wild type (full-length, unmodified) porcine CD163 (pig) (UniProt Q2VL90); assay: flow cytometry on PMMs of pig 633 (wild type)
[18] = target: ΔSRCR5 CD163 (porcine CD163 with the SRCR5 domain deleted) (pig) (UniProt Q2VL90); assay: flow cytometry on PMMs of pig 629 (ΔSRCR5)

“Alexa Fluor 488-labelled hemoglobin-haptoglobin complex (HbAF488-Hp) (from UniProt P69905 2-142; P68871 2-147; P00738 19-406) (ligand)” gave a medians of green fluorescence, HbAF488-Hp uptake into PMMs by FACS, animal 628 (wild type) [1] of 329, a medians of green fluorescence, HbAF488-Hp uptake into PMMs by FACS, animal 633 (wild type) [1] of 305 and a medians of green fluorescence, HbAF488-Hp uptake into PMMs by FACS, animal 629 (ΔSRCR5) [2] of 340. For the same substance, the medians of green fluorescence, HbAF488-Hp uptake into PMMs by FACS, animal 630 (ΔSRCR5) [2] was 405, the medians of green fluorescence, HbAF488-Hp uptake into PMMs by FACS, animal 627 (heterozygous) [3] was 329 and the medians of green fluorescence, HbAF488-Hp uptake into PMMs by FACS, animal 634 (heterozygous) [3] was 366.
“hemoglobin-haptoglobin complex (Hb-Hp) (from UniProt P69905 2-142; P68871 2-147; P00738 19-406) (ligand)” was tested, and the HO-1 mRNA upregulation in PMMs after 24 h with Hb-Hp, RT-qPCR [4] was 2 fold and 6 fold.
For “mouse IgG1 or IgG2b negative control (AbD Serotec, MCA928PE, MCA691F, or Sigma, F6397) (antibody)”, the median of fluorescence intensity [5] was 2.13 to 3.84 and the median of fluorescence intensity [6] was 1.88 to 3.79.
In the case of “mouse anti-pig CD163 antibody, clone 2A10/11 (AbD Serotec, MCA2311PE)”, the median of CD163 fluorescence intensity [7] is reported as 16.5, the median of CD163 fluorescence intensity [8] is reported as 18.3 and the median of CD163 fluorescence intensity [9] is reported as 26.4. For the same substance, the median of CD163 fluorescence intensity [10] was 17.2, the median of CD163 fluorescence intensity [11] was 23.3 and the median of CD163 fluorescence intensity [12] was 26.7. The median of CD163 fluorescence intensity [13] was 17.9, the median of CD163 fluorescence intensity [14] was 35.9 and the median of CD163 fluorescence intensity [15] was 24.4. It also gave a median of CD163 fluorescence intensity [16] of 22.7, a median of CD163 fluorescence intensity [17] of 16.7 and a median of CD163 fluorescence intensity [18] of 18.8.
